Patent publication US20120213799A1 (EISAI R AND D MANAGEMENT, published 2012)
Where a chain is given by its changes, count along the chain named. One block for each binder: values may come before it.

How the values were obtained:
[1] = target: T1, soluble hFKN-SEAP (extracellular region of human fractalkine conjugated to secreted alkaline phosphatase) (human, UniProt P78423 25-341); assay: BIACORE, mAb captured on Protein-A/G, soluble FKN-SEAP as analyte (also ELISA on captured hFKN-SEAP)
T1 construct: Used as culture supernatant of HEK293E cells; also called soluble FKN conjugated to SEAP; not shown: secreted alkaline phosphatase (SEAP) from the vector pcDNA3.1 (+) dSalI SEAP
T1 sequence: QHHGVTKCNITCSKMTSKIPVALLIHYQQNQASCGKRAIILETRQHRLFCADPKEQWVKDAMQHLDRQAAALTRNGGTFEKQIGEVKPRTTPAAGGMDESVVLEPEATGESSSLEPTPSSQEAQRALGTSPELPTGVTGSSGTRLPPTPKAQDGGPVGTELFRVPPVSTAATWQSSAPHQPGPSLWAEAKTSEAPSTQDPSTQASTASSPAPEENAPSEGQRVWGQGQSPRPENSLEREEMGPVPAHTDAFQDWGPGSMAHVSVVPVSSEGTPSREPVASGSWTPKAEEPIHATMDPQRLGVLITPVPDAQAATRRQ
Description: (§1) BIACORE® assays were performed as follows. Recombinant Protein-A/G (Pierce Chemical) was immobilized on BIACORE® sensor chips (CM5) that were pre-activated with amine coupling reagents (GE Healthcare). Purified mAbs were added into the sensor chips at a concentration of 0.2 μg/ml. Soluble antigens (soluble FKN conjugated to secreted alkaline phosphatase (SEAP) or control SEAP proteins) were added into the sensor chips at various concentrations (0 to 200 nM). Association of added antigens with mAbs captured on the sensor chips was monitored continuously, and the relative binding response of the antigens was determined using a BIACORE® A100 system (GE Healthcare).
ELISAs were performed as follows. Polyclonal anti-rabbit IgG antibody (Jackson ImmunoResearch Laboratories, Catalog No. 711-005-152) was coated on the wells of a 96-well plate (Nunc, Catalog No. 442402). After overnight incubation at 4° C., the wells were blocked with 1× Block-Ace (DainipponPharma) for 1 hour at room temperature. After washing three times with 0.05% Tween 20/PBS, 10 nM rabbit polyclonal anti-PLAP antibody (Biomeda) was added to the wells (50 μl/well). […] An equal volume of stopping solution (2 M H₂SO₄) was added to the wells and the optical density at 450 nm was read by a microplate reader (Arvo, PerkinElmer).

[2] = target: T1, soluble hFKN-SEAP (extracellular region …); assay: BIACORE, mAb captured by anti-human IgG, FKN-SEAP as analyte
Description: as §1
The BIACORE® assays were performed as described above. However, for humanized and chimeric mAbs, anti-human IgG mouse mAb (GE Healthcare) was used as the capturing antibody on the sensor chip.

[3] = target: T2, recombinant human FKN (R&D Systems, Catalog No. 362-CX/CF) (human, UniProt P78423 25-100); assay: cell-based or functional assay
T2 sequence: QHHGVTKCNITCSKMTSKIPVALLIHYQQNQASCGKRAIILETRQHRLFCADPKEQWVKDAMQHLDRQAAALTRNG

[4] = target: T3, R68A mutated FKN-SEAP-His (human, UniProt P78423 25-340); assay: sandwich ELISA, H3-2L4 coated, mutant hFKN-SEAP added, alkaline phosphatase read at 405 nm
T3 construct: also called R68A mutant; not shown: The SEAP reporter, the residues encoded by the NotI junction and the C-terminal (His)10 tag
T3 sequence: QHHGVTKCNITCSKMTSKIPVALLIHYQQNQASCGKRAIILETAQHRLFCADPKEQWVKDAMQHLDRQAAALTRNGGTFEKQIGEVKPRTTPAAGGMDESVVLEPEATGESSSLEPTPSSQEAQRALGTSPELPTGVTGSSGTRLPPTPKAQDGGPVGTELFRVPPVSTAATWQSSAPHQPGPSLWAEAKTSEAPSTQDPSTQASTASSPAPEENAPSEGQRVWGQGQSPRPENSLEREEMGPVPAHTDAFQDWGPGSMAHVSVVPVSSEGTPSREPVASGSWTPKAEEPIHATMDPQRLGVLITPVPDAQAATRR
Description: Mouse anti-human FKN monoclonal antibodies (1F3, 1G1, 2B2, 3D5, 6D1, 7F6) and H3-2L4 antibody were coated on an ELISA plate (Nunc) overnight at 4° C. The antibody solutions were removed. PBS solution containing 1% BSA was added to each well and incubated for 1 hour at room temperature, and the wells were washed with Tris-buffered saline (pH 7.4) containing 0.05% Tween 20. The wild type and R68A mutated FKN-SEAP-His solution (1, 0.5, 0.25, 0.125 nM) were added to the wells and incubated for 2 hours at room temperature. The antigen solutions were removed and washed with washing solution. p-Nitrophenyl phosphate solution (Thermo Scientific) was added to each well and incubated for 30 minutes at room temperature. The reaction was terminated with 1N NaOH solution and absorbance at 405 nm was measured.

binding result [1]: binds
B1: mouse anti-hFKN mAb clone 3A5-2 (antibody, mouse IgG2a, V domains shown)
VH: QVQLQQSGPELVKPGASVKMSCKASGYTFTNYYIHWVKQRPGQGLEWIGWIYPGDGSPKFNERFKGKTTLTADKSSNTAYMLLSSLTSEDSAIYFCATGPTDGDYFDYWGQGTTLTVSS
VL: DIQMTQSPASLSASVGETVTITCRASGNIHNFLAWYQQKQGKSPQFLVYNEKTLADGVPSRFSGSGSGTQYSLKINSLQPEDFGIYFCQQFWSTPYTFGGGTKLEIK
notes: Mouse monoclonal from hybridoma; Heavy chain was amplified with a mouse IgG2a CH3 primer and light chain with a mouse Ckappa primer; also called m3A5-2; m3A5-2 mAb

binding result [2]: binds
B2: mouse-human chimeric 3A5-2 mAb (antibody, human IgG2, V domains shown)
VH: B1 VH
VL: B1 VL
notes: also called chimeric mAb

CTX (IC50, nM) [3]: 0.2 nM
binding result [4]: no binding (tested: 0.13 nM)
B3: humanized anti-hFKN mAb H3-2L4-IgG2 (antibody, V domains shown)
VH: QVQLVQSGAEVKKPGASVKVSCKASGYTFTNYYIHWVKQAPGQGLEWIGWIYPGDGSPKFNERFKGRTTLTADKSTNTAYMLLSSLRSEDTAVYFCATGPTDGDYFDYWGQGTTVTVSS
VL: DIQMTQSPSSLSASVGDRVTITCRASGNIHNFLAWYQQKPGKAPKLLIYNEKTLADGVPSRFSGSGSGTDYTLTISSLQPEDFATYFCQQFWSTPYTFGGGTKVEIK
notes: also called H3-2L4 antibody

binding result [2]: binds
B4: humanized anti-hFKN mAb H3-2L2-IgG2 (antibody, V domains shown)
VH: B3 VH
VL: B3 VL with L46F, I48V, D70Q

binding result [2]: binds
B5: humanized anti-hFKN mAb H3L2-IgG2 (antibody, V domains shown)
VH: B3 VH with E89D
VL: B3 VL with L46F, I48V, D70Q

binding result [2]: binds
B6: humanized anti-hFKN mAb H3-L4-IgG2 (antibody, V domains shown)
VH: B3 VH with E89D
VL: B3 VL
